# Laboratory results reported in publication doi:10.1101/2020.02.14.947937 (bioRxiv, 2020).
# B1: mouse homomeric 5-HT3A receptor (receptor, UniProt P23979 24-489, looked up)
# chain: SRRRATQARDTTQPALLRLSDHLLANYKKGVRPVRDWRKPTTVSIDVIMYAILNVDEKNQVLTTYIWYRQYWTDEFLQWTPEDFDNVTKLSIPTDSIWVPDILINEFVDVGKSPNIPYVYVHHRGEVQNYKPLQLVTACSLDIYNFPFDVQNCSLTFTSWLHTIQDINITLWRSPEEVRSDKSIFINQGEWELLEVFPQFKEFSIDISNSYAEMKFYVIIRRRPLFYAVSLLLPSIFLMVVDIVGFCLPPDSGERVSFKITLLLGYSVFLIIVSDTLPATAIGTPLIGVYFVVCMALLVISLAETIFIVRLVHKQDLQRPVPDWLRHLVLDRIAWILCLGEQPMAHRPPATFQANKTDDCSGSDLLPAMGNHCSHVGGPQDLEKTPRGRGSPLPPPREASLAVRGLLQELSSIRHFLEKRDEMREVARDWLRVGYVLDRLLFRIYLLAVLAYSITLVTLWSIWHYS
# modifications: N-linked carbohydrates
# Biological target: the molecule itself
# Test: cryo-EM structure
protein,measurement,value
B1,stoichiometry N,5
